Paper PMC6778065, “BIN1 recovers tauopathy-induced long-term memory deficits in mice and interacts with Tau through Thr^348 phosphorylation” (Acta Neuropathologica, 2019)
Square brackets hold non-standard residues; d marks the D form. Ends that are not written are not given here. pT = C[C@@H](OP(=O)(O)O)[C@H](N)C(=O)O

B1: phospho-T348 CLAP (334-355) peptide (peptide)
peptide: QLRKGPPVPPPPKH[pT]PSKEVKQ
notes: residues 334-355 of the CLAP domain of BIN1 isoform 1 (neuronal isoform), phosphorylated on T348; unlabeled peptide, 4 mM stock solution; also called phospho-CLAP (334-355)
B2: CLAP (334-355) peptide (peptide)
peptide: QLRKGPPVPPPPKHTPSKEVKQ
notes: residues 334-355 of the CLAP domain of BIN1 isoform 1 (neuronal isoform); unlabeled peptide, 4 mM stock solution
B3: human BIN1 (transgene, hTau;TgBIN1 mouse hippocampus) (natural protein, UniProt O00499 1-593, looked up)
chain: MAEMGSKGVTAGKIASNVQKKLTRAQEKVLQKLGKADETKDEQFEQCVQNFNKQLTEGTRLQKDLRTYLASVKAMHEASKKLNECLQEVYEPDWPGRDEANKIAENNDLLWMDYHQKLVDQALLTMDTYLGQFPDIKSRIAKRGRKLVDYDSARHHYESLQTAKKKDEAKIAKPVSLLEKAAPQWCQGKLQAHLVAQTNLLRNQAEEELIKAQKVFEEMNVDLQEELPSLWNSRVGFYVNTFQSIAGLEENFHKEMSKLNQNLNDVLVGLEKQHGSNTFTVKAQPSDNAPAKGNKSPSPPDGSPAATPEIRVNHEPEPAGGATPGATLPKSPSQLRKGPPVPPPPKHTPSKEVKQEQILSLFEDTFVPEISVTTPSQFEAPGPFSEQASLLDLDFDPLPPVTSPVKAPTPSGQSIPWDLWEPTESPAGSLPSGEPSAAEGTFAVSWPSQTAEPGPAQPAEASEVAGGTQPAAGAQEPGETAASEAASSSLPAVVVETFPATVNGTVEGGSGAGRLDLPPGFMFKVQAQHDYTATDTDELQLKAGDVVLVIPFQNPEEQDEGWLMGVKESDWNQHKELEKCRGVFPENFTERVP
notes: human BIN1 expressed under the control of its own promoter; endogenous mouse Bin1 is present in the same tissue; also called hBIN1; Amphiphysin 2; source: transgenic mouse (hTau;TgBIN1), hippocampus, fixed brain slices

How the values were obtained:
[1] = target: T1, BIN1-SH3 domain (UniProt O00499 520-593); assay: NMR titration; 100 µM 15N-labeled BIN1-SH3 domain titrated with aliquots of 4 mM unlabeled peptide; 1H-15N HSQC chemical shift changes fitted to the saturation equation; 20 °C, 50 mM sodium phosphate pH 7.3, 30 mM NaCl, 3 mM DTT, 10% D2O; settings: both partners purified
T1 construct: SH3 domain of BIN1 (Amphiphysin 2); residue 559 lies in it (isoform 1 numbering); 15N-labelled for NMR; also called 15N-BIN1 SH3
T1 sequence (looked up): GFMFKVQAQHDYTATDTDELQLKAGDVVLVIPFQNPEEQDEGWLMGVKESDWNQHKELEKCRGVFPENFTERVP

[2] = target: T2, human Tau (MAPT transgene, hTau mouse hippocampus) (human, UniProt P10636-8 1-441); assay: proximity ligation; PLA in fixed hippocampal brain slices of 18-month-old control, hTau and hTau;TgBIN1 mice; primary antibodies BIN1-99D or α-tubulin DM1A (mouse) and Tau (rabbit); PLA spot density per tissue area; settings: partners not purified
T2 construct: human Tau from the human MAPT transgene Tg(MAPT)8cPdav; source: transgenic mouse (hTau; hTau;TgBIN1; no endogenous murine Mapt), hippocampus, fixed brain slices
T2 sequence (P10636 other isoform, or with tags, fused parts or gaps): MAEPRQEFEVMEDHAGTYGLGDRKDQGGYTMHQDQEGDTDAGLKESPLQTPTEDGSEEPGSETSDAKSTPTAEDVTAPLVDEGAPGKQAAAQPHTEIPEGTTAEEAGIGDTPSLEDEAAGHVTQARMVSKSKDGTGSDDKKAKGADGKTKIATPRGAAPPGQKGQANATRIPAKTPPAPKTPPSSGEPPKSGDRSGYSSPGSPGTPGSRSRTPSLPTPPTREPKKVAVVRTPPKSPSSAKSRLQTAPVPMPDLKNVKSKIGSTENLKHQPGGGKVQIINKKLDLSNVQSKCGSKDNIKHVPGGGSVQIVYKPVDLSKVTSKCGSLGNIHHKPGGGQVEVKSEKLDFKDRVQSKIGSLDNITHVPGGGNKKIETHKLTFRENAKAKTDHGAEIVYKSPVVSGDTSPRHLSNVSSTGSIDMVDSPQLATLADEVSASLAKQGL

Row | Binder | Kd [1] [µM] | fold PLA spot density against control mice [2] [fold] | fold PLA spot density against hTau mice [2] [fold]
1 | B1 | 736 ± 70 | – | –
2 | B2 | 71 ± 13 | – | –
3 | B3 | – | 6.2 | 2.7
